In PMC5880400, “FIN219/JAR1 and cryptochrome1 antagonize each other to modulate photomorphogenesis under blue light in Arabidopsis” (PLoS Genetics, 2018):

Biological target: T1, CBP-CRY1 (cryptochrome1 full-length, recombinant) (Arabidopsis thaliana, UniProt Q43125 1-681)
T1 construct: cryptochrome1 (CRY1), Arabidopsis thaliana, full-length; also called CRY1/pCal-n; CRY1 full-length; source: E. coli BL21 (DE3) codon plus, purified (electroelution), acetone-precipitated and resuspended in PBS
Assay: pull-down; 5 ug purified recombinant protein mixed in 500 ul interaction buffer (50 mM Tris-HCl pH 7.5, 10 mM MgCl2, 100 mM NaCl, 1 mM PMSF, 0.04% NP-40), 4°C 1 h; GST fusions held on GSH sepharose; blot probed with antibodies against the CBP-tag
Details: both partners purified

T1 sequence (Q43125 whole entry): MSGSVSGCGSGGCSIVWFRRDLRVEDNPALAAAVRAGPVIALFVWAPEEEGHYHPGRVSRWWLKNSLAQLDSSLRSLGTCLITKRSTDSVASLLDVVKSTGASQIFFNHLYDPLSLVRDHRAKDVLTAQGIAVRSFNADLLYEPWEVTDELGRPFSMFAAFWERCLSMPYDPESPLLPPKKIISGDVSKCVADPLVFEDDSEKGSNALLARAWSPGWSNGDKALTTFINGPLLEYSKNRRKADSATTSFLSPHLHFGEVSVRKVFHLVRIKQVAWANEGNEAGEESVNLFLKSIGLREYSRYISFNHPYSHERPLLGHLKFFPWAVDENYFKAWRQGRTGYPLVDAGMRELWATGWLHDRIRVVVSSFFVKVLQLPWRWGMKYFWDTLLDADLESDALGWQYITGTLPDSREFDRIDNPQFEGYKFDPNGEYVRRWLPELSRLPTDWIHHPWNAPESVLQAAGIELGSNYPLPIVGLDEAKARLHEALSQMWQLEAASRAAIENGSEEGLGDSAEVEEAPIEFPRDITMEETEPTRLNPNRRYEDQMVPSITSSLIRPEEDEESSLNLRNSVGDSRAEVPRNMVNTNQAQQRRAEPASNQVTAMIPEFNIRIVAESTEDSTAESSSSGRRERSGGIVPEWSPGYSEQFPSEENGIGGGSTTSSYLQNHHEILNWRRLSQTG

- binding result: binds
B1: GST-FIN219 (FIN219/JAR1 full-length, recombinant) (natural protein, Arabidopsis thaliana, UniProt Q9SKE2 1-575, looked up)
chain: MLEKVETFDMNRVIDEFDEMTRNAHQVQKQTLKEILLKNQSAIYLQNCGLNGNATDPEEAFKSMVPLVTDVELEPYIKRMVDGDTSPILTGHPVPAISLSSGTSQGRPKFIPFTDELMENTLQLFRTAFAFRNRDFPIDDNGKALQFIFSSKQYISTGGVPVGTATTNVYRNPNFKAGMKSITSPSCSPDEVIFSPDVHQALYCHLLSGILFRDQVQYVFAVFAHGLVHAFRTFEQVWEEIVTDIKDGVLSNRITVPSVRTAMSKLLTPNPELAETIRTKCMSLSNWYGLIPALFPNAKYVYGIMTGSMEPYVPKLRHYAGDLPLVSHDYGSSEGWIAANVTPRLSPEEATFAVIPNLGYFEFLPVSETGEGEEKPVGLTQVKIGEEYEVVITNYAGLYRYRLGDVVKVIGFYNNTPQLKFICRRNLILSINIDKNTERDLQLSVESAAKRLSEEKIEVIDFSSYIDVSTDPGHYAIFWEISGETNEDVLQDCCNCLDRAFIDAGYVSSRKCKTIGALELRVVAKGTFRKIQEHFLGLGSSAGQFKMPRCVKPSNAKVLQILCENVVSSYFSTAF
notes: FIN219/JAR1, Arabidopsis thaliana, full-length; also called GST-FIN219 full-length; FIN219FL/pGEX-4T-1; source: E. coli BL21 (DE3) codon plus, purified (GSH sepharose), acetone-precipitated and resuspended in PBS
